# Measured values: patent US20160200782A1 (MOERAE MATRIX, published 2016)
# T1: GCK(h) (human, UniProt Q12851 1-820, limits assumed)
# T1 sequence (looked up): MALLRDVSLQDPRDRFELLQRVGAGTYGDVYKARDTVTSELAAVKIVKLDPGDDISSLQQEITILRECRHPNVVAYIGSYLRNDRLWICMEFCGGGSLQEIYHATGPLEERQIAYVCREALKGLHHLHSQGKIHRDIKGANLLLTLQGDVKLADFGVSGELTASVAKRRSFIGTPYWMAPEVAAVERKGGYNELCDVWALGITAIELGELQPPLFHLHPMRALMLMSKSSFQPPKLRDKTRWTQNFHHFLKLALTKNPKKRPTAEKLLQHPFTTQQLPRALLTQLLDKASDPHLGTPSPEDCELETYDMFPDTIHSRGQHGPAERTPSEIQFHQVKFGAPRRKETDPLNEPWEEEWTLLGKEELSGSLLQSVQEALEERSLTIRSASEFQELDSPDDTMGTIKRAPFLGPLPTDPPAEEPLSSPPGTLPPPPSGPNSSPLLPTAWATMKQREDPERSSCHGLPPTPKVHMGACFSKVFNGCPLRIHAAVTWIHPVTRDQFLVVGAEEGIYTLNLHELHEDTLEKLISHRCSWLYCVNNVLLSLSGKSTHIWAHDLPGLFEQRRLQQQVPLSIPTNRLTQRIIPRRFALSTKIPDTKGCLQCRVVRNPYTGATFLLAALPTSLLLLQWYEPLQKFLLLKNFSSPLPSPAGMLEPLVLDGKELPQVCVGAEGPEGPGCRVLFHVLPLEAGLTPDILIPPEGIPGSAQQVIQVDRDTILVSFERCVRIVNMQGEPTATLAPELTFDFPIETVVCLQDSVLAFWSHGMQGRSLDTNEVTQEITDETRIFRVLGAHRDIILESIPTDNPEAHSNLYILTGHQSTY
# T2: Bmx(h) (human, UniProt P51813 1-675, limits assumed)
# T2 sequence (looked up): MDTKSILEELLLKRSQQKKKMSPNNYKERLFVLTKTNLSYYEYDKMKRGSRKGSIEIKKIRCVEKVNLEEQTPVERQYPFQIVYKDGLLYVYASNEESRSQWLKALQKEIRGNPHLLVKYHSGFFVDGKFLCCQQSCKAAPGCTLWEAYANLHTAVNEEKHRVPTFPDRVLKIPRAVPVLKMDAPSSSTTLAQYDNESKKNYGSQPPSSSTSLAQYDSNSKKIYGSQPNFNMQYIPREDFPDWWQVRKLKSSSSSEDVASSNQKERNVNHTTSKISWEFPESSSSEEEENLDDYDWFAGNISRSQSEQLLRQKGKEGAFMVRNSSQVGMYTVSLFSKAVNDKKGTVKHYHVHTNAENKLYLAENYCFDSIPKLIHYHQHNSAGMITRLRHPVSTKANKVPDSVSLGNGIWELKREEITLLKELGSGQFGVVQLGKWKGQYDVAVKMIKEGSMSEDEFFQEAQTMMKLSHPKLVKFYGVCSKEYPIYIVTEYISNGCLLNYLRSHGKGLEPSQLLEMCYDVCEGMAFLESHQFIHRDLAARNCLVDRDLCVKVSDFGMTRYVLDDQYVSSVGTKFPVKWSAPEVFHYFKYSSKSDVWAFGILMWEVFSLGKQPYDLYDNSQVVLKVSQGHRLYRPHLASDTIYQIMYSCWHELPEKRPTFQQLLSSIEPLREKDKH
# What was measured:
# Assay in all cases: cell-based or functional assay
# SRPK2(h) = SRPK2(h) (human, UniProt P78362 1-688, limits assumed)
# PKCη(h) = PKCη(h) (human, UniProt P24723 1-683)
# GCK(h) = biological target: T1, GCK(h)
# cKit(V560G)(h) = cKit(V560G)(h) (human, UniProt P10721 544-976, limits assumed)
# Plk1(h) = Plk1(h) (human, UniProt P53350 1-603, limits assumed)
# PKCδ(h) = PKCδ(h) (human, UniProt Q05655 1-676)
# CK2α2(h) = CK2α2(h) (human, UniProt P19784 1-350)
# EGFR(L858R)(h) = EGFR(L858R)(h) (human, UniProt P00533 696-1210, limits assumed)
# Tie2(R849W)(h) = Tie2(R849W)(h) (human, UniProt Q02763 771-1124, limits assumed)
# PKA(h) = PKA(h) (human)
# ACK1(h) = ACK1(h) (human, UniProt Q07912 110-476, limits assumed)
# GRK5(h) = GRK5(h) (human, UniProt P34947 1-590)
# CK1γ1(h) = CK1γ1(h) (human, UniProt Q9HCP0 1-422)
# JAK3(h) = JAK3(h) (human, UniProt P52333 781-1124, limits assumed)
# Rsk3(h) = Rsk3(h) (human, UniProt Q15349 1-733, limits assumed)
# BRK(h) = BRK(h) (human, UniProt Q13882 1-451, limits assumed)
# TLK2(h) = TLK2(h) (human, UniProt Q86UE8 1-772, limits assumed)
# Bmx(h) = biological target: T2, Bmx(h)
# MAPK1(h) = MAPK1(h) (human, UniProt P28482 1-360, limits assumed)
# CLK2(h) = CLK2(h) (human, UniProt P49760 1-499, limits assumed)
# CK1γ3(h) = CK1γ3(h) (human, UniProt Q9Y6M4 1-447)
# CK1γ2(h) = CK1γ2(h) (human, UniProt P78368 1-415)
# EGFR(T790M)(h) = EGFR(T790M)(h) (human, UniProt P00533 696-1210, limits assumed)
binder,measurement,setting,value
KAFAKLAARLYRKALARQLGVAA [MMI-0400],% activity,SRPK2(h),97%
same,% activity,PKCη(h),98%
same,% activity,GCK(h),66%
same,% activity,cKit(V560G)(h),124%
same,% activity,Plk1(h),119%
same,% activity,PKCδ(h),90%
same,% activity,CK2α2(h),96%
same,% activity,EGFR(L858R)(h),52%
same,% activity,Tie2(R849W)(h),108%
same,% activity,PKA(h),119%
same,% activity,ACK1(h),95%
same,% activity,GRK5(h),131%
same,% activity,CK1γ1(h),116%
same,% activity,JAK3(h),122%
same,% activity,Rsk3(h),71%
same,% activity,BRK(h),18%
same,% activity,TLK2(h),151%
same,% activity,Bmx(h),26%
same,% activity,MAPK1(h),100%
FAKLAARLYRKALARQLGVAA [MMI-0300],% activity,CLK2(h),103%
same,% activity,GCK(h),70%
same,% activity,PKCδ(h),101%
same,% activity,CK1γ3(h),125%
same,% activity,Rsk3(h),76%
same,% activity,CK1γ2(h),123%
same,% activity,BRK(h),35%
same,% activity,EGFR(T790M)(h),100%
